# Assay results published in article PMC4351732 (Structure (London, England : 1993), 2015).
# B1: human NAPE-hydrolyzing phospholipase D (NAPE-PLD), truncated form Δ47 (D47 to F393) (enzyme, UniProt Q6IQ20 47-393, looked up)
# chain: DYRLEEDVTKSKKGKDGRFVNPWPTWKNPSIPNVLRWLIMEKDHSSVPSSKEELDKELPVLKPYFITNPEEAGVREAGLRVTWLGHATVMVEMDELIFLTDPIFSSRASPSQYMGPKRFRRSPCTISELPPIDAVLISHNHYDHLDYNSVIALNERFGNELRWFVPLGLLDWMQKCGCENVIELDWWEENCVPGHDKVTFVFTPSQHWCKRTLMDDNKVLWGSWSVLGPWNRFFFAGDTGYCPAFEEIGKRFGPFDLAAIPIGAYEPRWFMKYQHVDPEEAVRIHTDVQTKKSMAIHWGTFALANEHYLEPPVKLNEALERYGLNAEDFFVLKHGESRYLNNDDENF
# Target: the molecule itself
# Experiment: crystal structure
protein,measurement,value
B1,stoichiometry N,2
